The values that follow come from the supplement of paper PMC10567573.

The data set in a line: protein stability index of a GFP-peptide fusion (GPS, HEK-293T) (PSI 1-6); higher = more stable.
[1] abbreviates: treatment: DMSO, c terminus: a fixed tail appended.
Where [2] appears, read: treatment: MLN4924 1 uM, 8 h, c terminus: a fixed tail appended.
The mark [3] stands for this setting: treatment: DMSO, c terminus: native.
Setting [4] is: treatment: MLN4924 1 uM, 8 h, c terminus: native.

± gives the standard deviation.
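Note: 24-mer peptide tiles fused after GFP, lentivirally expressed, FACS-sorted into six equal bins by GFP/DsRed ratio, decoded by Illumina sequencing, PSI is the read-weighted mean bin number.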

Consider QLEEKLEIANEDRKHALERFEQEA [CCDC89], for which the protein stability index is, setting by setting: under setting [1], 5.4 ± 0.19; under setting [2], 5.4 ± 0.12.
Take QLMTSQFISVFSNLLESKADGIEV [ZER1]: the protein stability index reads like this: under setting [1], 2.89 ± 0.62; under setting [2], 2.5 ± 0.54.
In the case of QLSRELSTLRNLFKQLPEPLLASS [CEBPB], the protein stability index is, setting by setting: under setting [1], 2.28 ± 0.1; under setting [2], 2.37 ± 0.29.
Consider QMASQSSASHYKLQVIKALKSSGL [M1AP], for which the protein stability index was found to be 2.82 ± 0.26 under setting [1] and 2.77 ± 0.21 under setting [2].
The sequence QMELLLVNKLKWNLAAMTPHDFIE [CCND1] came in with a protein stability index under setting [1] of 2.91 ± 0.6 and a protein stability index under setting [2] of 2.71 ± 0.5.
As for QNNENNISCVERGWSTPPKCRSTI [CFHR2], the protein stability index amounted to 3.97 ± 0.29 under setting [1] and 4.11 ± 0.34 under setting [2].
For QNVVVKTLWKHQFAWPFYQPVDAI [BRD3], the protein stability index turned out to be 2.31 ± 0.46 under setting [1] and 2.29 ± 0.45 under setting [2].
In turn, QPAKKPLLWSDPADNKIVSHLLVA [ESRRG] returned a protein stability index under setting [1] of 2.36 ± 0.17 and a protein stability index under setting [2] of 2.63 ± 0.26.
As for QPPEFRNESSLASTLKTLLFFTAL [VMA21], the protein stability index was found to be 2.42 ± 0.32 under setting [1] and 2.39 ± 0.11 under setting [2].
Taken in the same sequence, the figures for QPSQQQQPPPQEEPGTPSSSPDDK [KLHL14] were 5.6 ± 0.26 and 5.59 ± 0.15.
As for QPYPLPHVRHMAYQLCHALRFLHE [CLK3], the protein stability index was 2.34 ± 0.1 under setting [1] and 2.1 ± 0.23 under setting [2].
Regarding QQHRQGRSHHLEMVIQLLAIMCVS [PTGFR], the protein stability index is, setting by setting: under setting [1], 2.61 ± 0.51; under setting [2], 2.12 ± 0.44.
On to QRFRQFQYREAAGPHEAFNKLWEL [ZNF449], for which the protein stability index is 2.17 ± 0.18 under setting [1] and 2.33 ± 0.19 under setting [2].
Consider QRGQEPLGPGALHFDLRDDDDAEE [TCF25], for which the protein stability index by setting is: under setting [1], 5.36 ± 0.39; under setting [2], 5.53 ± 0.33.
Turning to QRPLVSVTVSDASWVSELLWSLFV [AUP1], the protein stability index under setting [1] came out at 2.36 ± 0.2 and the protein stability index under setting [2] was 2.14 ± 0.2.
With QRPRFITSGGSNIIYVASNHFVWR [VPS39], the protein stability index reads like this: under setting [1], 2.12 ± 0.23; under setting [2], 2.49 ± 0.25.
In the same order, the values of QSDEEQDSVKVALLETNPYLLALT [CLPTM1] are 3.92 ± 0.19 and 4.16 ± 0.3.
On to QSWMWRGLTFLLPFLFFGHFWQLF [TMEM120A], for which the protein stability index reads like this: under setting [1], 2.66 ± 1.1; under setting [2], 2.79 ± 0.25.
In the case of QTHSNTIVVSLQSKLASMSNDFKS [STX5], the protein stability index was determined as 2.8 ± 0.11 under setting [1] and 2.92 ± 0.24 under setting [2].
Turning to QVDVRFFGHHHQRAWIPSENIQDI [ZMYND11], the protein stability index runs as follows: under setting [1], 2.74 ± 0.22; under setting [2], 2.94 ± 0.17.
For QVQCHSYTGYCWCVTPNGRPISGT [SMOC2], the protein stability index runs as follows: under setting [1], 2.08 ± 0.26; under setting [2], 2.37 ± 0.38.
For the sequence QVSHDFLETRFKIQQLLEPQQYMA [FBXO34], the protein stability index runs as follows: under setting [1], 3.85 ± 0.49; under setting [2], 4.15 ± 0.29.
In the case of RACSHLIRLMQRCWQGDPRVRPTF [RIPK4], the protein stability index came out at 2.87 ± 0.45 under setting [1] and 2.83 ± 0.2 under setting [2].
On to RALEEVEMKLQKNFLTQRENTIAG [C10orf62], for which the protein stability index was 3.48 ± 0.081 under setting [1] and 3.73 ± 0.33 under setting [2].
As for RALLRRFPRMLLVDRLPGLQGALD [ZSWIM9], the protein stability index was 2.49 ± 0.25 under setting [1] and 2.52 ± 0.24 under setting [2].
Turning to RCFYTRKDVRRHLVVHTGCKDFLC [PLAGL1], the protein stability index was determined as 2.11 ± 0.47 under setting [1] and 2.19 ± 0.39 under setting [2].
For the sequence RCLHMDQLQDFNIPQAGGWGPWGP [ADAMTS4], the protein stability index runs as follows: under setting [1], 2.24 ± 0.35; under setting [2], 2.24 ± 0.75.
Taken in the same sequence, the figures for RCMQCDAKFDFLTRKHHCRRCGKC [ZFYVE21] were 3.94 ± 0.34 and 4.3 ± 0.3.
As to RCRLSLDDRVLSSLVRDTIARVHG [POP5], the protein stability index came to 2.29 ± 0.25 under setting [1] and 2.35 ± 0.27 under setting [2].
For RDQIFRYVHDPECVATTGDITVSV [FBXO3], the protein stability index is, setting by setting: under setting [1], 2.52 ± 0.2; under setting [2], 2.42 ± 0.27.
Regarding RDSYSSSSRGAPRGGGRGGSRSDR [RBMX], the protein stability index is 5.41 ± 0.24 under setting [1] and 5.44 ± 0.17 under setting [2].
REAGFHQYEVSNFARNGALSTHNW [RSAD1]: the protein stability index turned out to be 2.97 ± 0.28 under setting [1] and 3.08 ± 0.2 under setting [2].
Take REFKVTDARDGQSRTVRQFQFTDW [PTPRD]: the protein stability index by setting is: under setting [1], 3.16 ± 0.34; under setting [2], 3.11 ± 0.58.
For REHAKARVDHGAEIITQSPGRSSV [MAP2], the protein stability index was 4.75 ± 0.11 under setting [1] and 4.89 ± 0.12 under setting [2].
On to REHELLCRADHGLLLERAAAGSPR [ISL2], for which the protein stability index reads like this: under setting [1], 3.82 ± 0.31; under setting [2], 3.89 ± 0.062.
As to REKIMKLPLPESLKAYLTYFRDK [PCMTD1], the protein stability index runs as follows: under setting [3], 2.05 ± 0.36; under setting [4], 2.59 ± 0.34.
For RELESREAELRRRDTFYKEQLERI [CHCHD6], the protein stability index is, setting by setting: under setting [1], 4.56 ± 0.12; under setting [2], 4.87 ± 0.39.
For REMVMYSITVAFWLLNSWLWFRR [MFF], the protein stability index is, setting by setting: under setting [3], 2.27 ± 0.96; under setting [4], 2.48 ± 0.86.
Consider RGEAEAFAIGARARAEAEQMAKKA [FLOT1], for which the protein stability index runs as follows: under setting [1], 5.33 ± 0.27; under setting [2], 5.17 ± 0.26.
Consider RGNRLKTTSWGLLSLGALVALCWQ [SCNN1D], for which the protein stability index was found to be 2.3 ± 0.26 under setting [1] and 2.16 ± 0.24 under setting [2].
With RGPVVPKHSTFGQSLTQRLHALKL [GNAS], the protein stability index is, setting by setting: under setting [1], 2.4 ± 0.29; under setting [2], 2.36 ± 0.28.
In the same order, the values of RHLNDDDVTGSVKSERRNLLEDDS [VAMP4] are 5.28 ± 0.2 and 5.42 ± 0.19.
Consider RHPPKVGDDSDLSEGFESDSSHDS [SMG5], for which the protein stability index by setting is: under setting [1], 5.46 ± 0.18; under setting [2], 5.51 ± 0.21.
For RHRSADVLGVADGVGGWRDYGVDP [PPTC7], the protein stability index runs as follows: under setting [1], 4.14 ± 0.39; under setting [2], 4.07 ± 0.48.
In the same order, the values of RIDSQFLIGDTLLVAPVLEPGKQE [MYORG] are 3.77 ± 0.18 and 3.81 ± 0.26.
The sequence RIFAHKIYLSTSSSKFYDLFLMDL [RHOBTB2] yielded a protein stability index under setting [1] of 2.97 ± 0.31 and a protein stability index under setting [2] of 2.86 ± 0.66.
As for RIIPNFYPPLEGHVRQGVFSSLNH [INTS3], the protein stability index came to 2.28 ± 0.025 under setting [1] and 2.3 ± 0.16 under setting [2].
As for RILDELTLCKADLEAQVESLKEEL [KRT36], the protein stability index runs as follows: under setting [1], 3.76 ± 0.35; under setting [2], 3.68 ± 0.54.
RKDMIAEKLAPSEITEELPSSQLM [ZNF396] registered a protein stability index under setting [1] of 4.98 ± 0.16 and a protein stability index under setting [2] of 4.86 ± 0.27.
RKFYVHIKPAPARAPACSPEAAAA [FCHO1]: the protein stability index runs as follows: under setting [1], 2.66 ± 0.3; under setting [2], 2.82 ± 0.35.
Taken in the same sequence, the figures for RKISVNAKDEDQWTALHFAAQNGD [RIPK4] were 4.19 ± 0.26 and 4.59 ± 0.53.
Taken in the same sequence, the figures for RMAAPRAEALFDFTGNSKLELNFK [NCF4] were 3.33 ± 0.2 and 3.46 ± 0.28.
With RMRYLNGLDPEPLPLMDLCRRSVR [SPSB1], the protein stability index amounted to 3.21 ± 0.27 under setting [1] and 3.36 ± 0.1 under setting [2].
On to RNGAVRRFGQTIQSFTLRGDHRSP [NET1], for which the protein stability index runs as follows: under setting [1], 3.36 ± 0.31; under setting [2], 3.49 ± 0.13.
Consider RNIMNLIDIVAIIPYFITLGTELA [KCNA3], for which the protein stability index reads like this: under setting [1], 2.84 ± 0.4; under setting [2], 2.97 ± 0.21.
As to RNRAITARRQHLKSVMLQIAATEL [TNNI2], the protein stability index by setting is: under setting [1], 2.4 ± 0.25; under setting [2], 2.72 ± 0.33.
As to RPFDCPVCNKKFKMKHHLTEHMKT [ZBTB22], the protein stability index by setting is: under setting [1], 2.77 ± 0.23; under setting [2], 3.47 ± 0.53.
As for RPGQAPIGNPPVGPIGGMMPPQPG [ZNF207], the protein stability index is, setting by setting: under setting [1], 4.14 ± 0.22; under setting [2], 4.28 ± 0.38.
Take RPIGEFRSNADYQYQLLRCNVDLL [CNOT7]: the protein stability index is, setting by setting: under setting [1], 2.5 ± 0.2; under setting [2], 2.47 ± 0.16.
As to RPSEIKDYSPYFKTIEDLRNKIIA [KRT16], the protein stability index under setting [1] is 2.28 ± 0.18 and the protein stability index under setting [2] came out at 2.41 ± 0.22.
On to RPSMASELMPSSRLWSLSYTKLPS [SLC25A39], for which the protein stability index by setting is: under setting [1], 2.99 ± 0.19; under setting [2], 2.92 ± 0.26.
In the same order, the values of RRAGAACTLRQKLIFSPCSDCEEE [WEE1] are 4.2 ± 0.25 and 4.39 ± 0.15.
In the same order, the values of RRENYGVPPRRATISSWRNDRMST [RBMY1A1] are 3.31 ± 0.28 and 3.43 ± 0.068.
On to RRKGEMGLSAEDGVWAVIISHQQC [TRIM15], for which the protein stability index stood at 2.36 ± 0.49 under setting [1] and 2.16 ± 0.21 under setting [2].
Taken in the same sequence, the figures for RRMFSSLFQFSNCSQGQQLATFSS [CCDC3] were 2.31 ± 0.2 and 2.34 ± 0.98.
Turning to RSGGHAPRVRELLLDALSPEQLVL [ESR2], the protein stability index was determined as 2.82 ± 0.14 under setting [1] and 2.91 ± 0.34 under setting [2].
In the same order, the values of RTADEATNTGPAGSSASTSPAPLD [DYRK1B] are 5.5 ± 0.28 and 5.34 ± 0.21.
As for RTDYSGRGELSARQMHLARFLRML [RAD51], the protein stability index worked out at 2.18 ± 0.42 under setting [1] and 2.38 ± 0.26 under setting [2].
As to RTGSLFKIWLVVPSLLELAWEKLL [KLHDC10], the protein stability index was 2.84 ± 0.27 under setting [1] and 2.78 ± 0.31 under setting [2].
In the same order, the values of RTHSVIKEETNHSEMAEDLCKIGS [IKZF1] are 4.9 ± 0.25 and 4.85 ± 0.46.
Consider RTPPKSPGDPSKDRAAKRLSLESE [TPPP], for which the protein stability index reads like this: under setting [1], 5.3 ± 0.14; under setting [2], 4.99 ± 0.25.
Taken in the same sequence, the figures for RVQAAAFGPGQTLLSSVHVLDLEA [ALKBH7] were 3.02 ± 0.42 and 3.3 ± 0.32.
